For 57 substances, amyloid nucleation score results are on record in the supplement of paper PMC12042874.

± gives the uncertainty stated by the source.

The data set can be described thus: amyloid nucleation score (Sup35N fusion, yeast selection) (log enrichment); library NNK1; higher = more nucleation; inactive = no reads after selection. Put shortly: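 In psi-negative yeast, Sup35N fusions carrying peptides of 20 random codons were induced with 100 μM copper sulfate for 24 hours. The cells then grew 7 days at 30°C on medium lacking adenine and uracil, and plasmid inserts from input and output were Illumina-sequenced, excluding sequences with under 100 input reads. Nucleation score is the DiMSum log enrichment of output over input reads, centred on the mode score of non-aggregating sequences.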
For ECTRSGVFSCNSWIKYESSM, the amyloid nucleation score was -0.145 ± 0.31. With EDKYFA the figure was 0.323 ± 0.69; with EDRYGIVC, -0.25 ± 0.74. The result for EEGDAAGVVILNMQRSYG reads -0.427 ± 0.41; that for EFIIAWVWRLHNWVSGFRHS, 0.343 ± 0.35. With EFMYYL the figure was -0.979 ± 1.9; with EFPIHQERAPSTTIHPSVSC, 0.765 ± 0.9. As to EFRMFTLKLR, the amyloid nucleation score turned out to be 1.13 ± 0.65.

Take EGDYNGGCCQGLLNCQ: the amyloid nucleation score was -0.562 ± 0.56. The substance EGFITSSMALGLHFVLLGWV gave an amyloid nucleation score of -1.37 ± 1.3. The substance EGNSDCLWVGYGASMTRWVR gave an amyloid nucleation score of 0.258 ± 0.88. With EGQTGLLVWYGSHSVRLGNF the figure was -0.957 ± 2.4. EGRLTVE returned an amyloid nucleation score of -0.011 ± 0.32. The result for EGRSWLGTESGLYGNVREND reads 0.577 ± 0.68. EGSVGHRMVSWVFISYTLVL: the amyloid nucleation score amounted to 0.006 ± 1.1.

In turn, EGWPTSTLSLSRYALLGSPR displayed an amyloid nucleation score of -0.486 ± 0.66. EHLRFKKANNVLYVNESSSV had an amyloid nucleation score of -1.59 ± 1.3. With EICMRPY, the amyloid nucleation score was -0.081 ± 1.1. With EICSSESAVQKHNSPWGSDY the figure was -1.71 ± 2.7; with EIGYMGLSVSIFRCVWLFIF, 0.056 ± 0.34.

Substance EIKISSDGTVSMARGRWCQG displayed an amyloid nucleation score of 6.615 ± 0.05.

In the case of EILETGRCLSFLYRIVDGCI, the amyloid nucleation score result is “inactive”. With EILFFEFFKNEFLYCHKMLC the figure was 0.902 ± 0.4; with EKELIK, 1.1 ± 0.61; with EKGFVYYTRGYLRDGLGRSQ, -0.222 ± 0.35. Substance EKILLG came in with an amyloid nucleation score of -1.8 ± 2.4. Substance EKLKMVVGWVVPLSAHMQEY registered an amyloid nucleation score of 0.609 ± 0.84. The result for EKRLYGYLKDHLE reads -0.605 ± 0.35; that for EKVILHANCFCITMNRMLYH, -0.015 ± 0.39; that for ELCAQYVIFSFASSRSYDSY, 0.579 ± 0.28. With ELGSGFQFVYSYS the figure was -0.465 ± 0.46; with ELHTAEFNLNRM, 1.04 ± 0.73; with ELIHILDLVVTPGRFGRPVN, 2.58 ± 0.36. With ELKLLSNAFGMQGIWIRRVV the figure was -0.113 ± 0.32. ELKRGVHLRPE came in with an amyloid nucleation score of 4.36 ± 0.14. For ELKTFTDKIGG, the amyloid nucleation score result is “inactive”.

For ELLYGWGIP, the amyloid nucleation score is -0.723 ± 0.76. With ELTNR the figure was 0.044 ± 0.39. The result for ELVYRMESIFCSELRVLGKF reads 4.14 ± 0.15. For the substance EMFHVVGSRLMPVRMVRNQC, the amyloid nucleation score result was “inactive”. Take EMTRLLNSCIKYQYSRQRYA: the amyloid nucleation score was -0.97 ± 1.2. Substance EMYKSVP returned an amyloid nucleation score of 0.109 ± 0.48. With EMYKTRAFLSRKYMRHLLFN the figure was -0.316 ± 0.39. With ENHAKLHDICGASGLSREGG the figure was 0.592 ± 0.49; with ENKHVGICSGVQFVAFETCY, “inactive”; with ENRFARCYRVV, 2.1 ± 0.1.

In the case of EPCVGNSNSCCVHC, the amyloid nucleation score is -0.072 ± 0.53.

Substance EPGSLTESKSFYFLSCPTTR had an amyloid nucleation score of 0.808 ± 0.7.

Take EPYSLAIKGVHTLLRGSRKS: the amyloid nucleation score is 0.571 ± 0.29. Turning to ERLGLRRFTIIISRQAQV, the amyloid nucleation score amounted to 0.03 ± 0.34. As to ERLHMLLAKCIHVGETRHLN, the amyloid nucleation score worked out at 0.194 ± 0.66. With ERPTNSYGSREILNSYIINF the figure was 5.05 ± 0.084. For the substance ERRDVRIYKSCGLGHVFYEG, the amyloid nucleation score was found to be 4.91 ± 0.056. Consider ERTICSVITMNHGSSAYQGS, for which the amyloid nucleation score was -0.081 ± 0.47. The result for ERWIVVPDESTTRTTHRHIN reads 0.147 ± 1.6. With ESARCVRVTALSLWHRDQRS the figure was 1.02 ± 0.8. With ESEWNIMPFDNLYLGRETVW the entry was “inactive”.
